Data published in article PMC4841237, “Structure and stability of recombinant bovine odorant-binding protein: II. Unfolding of the monomeric forms” (PeerJ, 2016).

Target: the molecule itself
Assay: SEC; gel filtration on Superdex-75 PC 3.2/30, 20 mM Na-phosphate pH 7.8, without GdnHCl and at low GdnHCl (below 1.5-2 M), with or without 10 mM OCT; protein 0.1-0.2 mg/ml; monomer to dimer

B1: recombinant bovine odorant-binding protein (natural protein)
chain: AQEEEAEQNLSELSGPWRTVYIGSTNPEKIQENGPFRTYFRELVFDDEKGTVDFYFSVKRDGKWKNVHVKATKQDDGTYVADYEGQNVFKIVSLSRTHLVAHNINVDKHGQTTELTELFVKLNVEDEDLEKFWKLTEDKGIDKKNVVNFLENEDHPHPE
notes: In some samples 10 mM 1-octen-3-ol (OCT) was present; also called bOBP; bOBPwt; source: E. coli BL21(DE3), plasmid pT7-7-bOBP, purified (Ni+-agarose, HisGraviTrap)
- stoichiometry N: 2
